According to publication PMC11532496:

Columns and labels:
[1] = biological target: non-stabilized CE1 design Env SOSIP trimer (CH505.M5.G458Y N386R without F14 and 2P) (HIV-1) (UniProt Q2N0S6); test: SPR
[2] = biological target: CH848-d949 DE3 design Env SOSIP trimer (N408K/N442A) (HIV-1); test: SPR

CH235.12 Fab
fold change of ka against CH505.M5.G458Y [1]: 2 fold

B1: DH270 lineage intermediate I5.6 Fab (Fab, V domains shown)
VH: QVQLVQSGAEVKKPGASVKVSCKASGYTFTDYYIHWVRQAPGQGLEWMGWINPNTGRTNSAQKFQGRVTMTRDTSISTAYMELSRLRSDDTAVYYCARGGWIGLYYDSSGYPNFDYWGQGTLVTVSS
VL: QSALTQPASVSGSPGQSITISCTGTSYDVGSYNLVSWYQQHPGKAPKLMIYEVSKRPSGVSNRFSGSKSGNTASLTISGLQAEDEADYYCCSYAGSSTVVFGGGTKLTVL
fold change of ka against the unmutated CH848-d949 trimer [2]: 45 fold
